Laboratory results reported in patent publication US20220218639A1.

Tests used:
plasmin = plasmin (Homo sapiens, UniProt P00747); conditions: binding to the serine in plasmin's active site; cited from earlier work
preformed blood clots = assay: In-vitro circulating plasma lung model of pulmonary embolism; conditions: circulating human plasma
Protocol: The in-vitro circulating plasma lung model 200 of pulmonary embolism (as shown in FIGS. 22 and 23), consists of a 3-D printed circuit 210, designed to mimic lung vasculature, and in which preformed blood clots of known mass are placed. This “lung” is in fluid connection with a reservoir 220 of approximately 200-250 mL of human plasma, type-matched to the clots, that is recirculated with a peristaltic pump 230, passed through a heating element (not shown), then pumped through the lung itself at a physiological constant pressure. An injection port 240 allows injection of reagents, enzymes or other molecules. After lysis is initiated, the “lung” is circulated for one hour. Clots are weighed before and after completion of the experiment reweighed, to provide for percentage of clot lysis information for each treatment regime.
In this Example, pulmonary embolism was simulated using the in-vitro lung model of Example 13 and the ability of the delivery system of the present disclosure was analyzed for its ability to remove clots.
Particularly, human plasma (200-250 mL), recirculated (37° C.) and loaded with approximately 4 grams type-matched clots was injected into the delivery system. After 1 hour of circulation, the clots were removed and weighed.

plasmin, sequence (P00747 581-810 limits assumed): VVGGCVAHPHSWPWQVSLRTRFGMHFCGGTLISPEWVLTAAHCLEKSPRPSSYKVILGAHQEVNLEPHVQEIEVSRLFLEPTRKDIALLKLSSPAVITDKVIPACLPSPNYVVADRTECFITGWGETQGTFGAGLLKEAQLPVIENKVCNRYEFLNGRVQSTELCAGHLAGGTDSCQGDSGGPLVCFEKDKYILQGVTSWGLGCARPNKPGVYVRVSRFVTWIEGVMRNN
plasmin, sequence (P00747 97-580 limits assumed): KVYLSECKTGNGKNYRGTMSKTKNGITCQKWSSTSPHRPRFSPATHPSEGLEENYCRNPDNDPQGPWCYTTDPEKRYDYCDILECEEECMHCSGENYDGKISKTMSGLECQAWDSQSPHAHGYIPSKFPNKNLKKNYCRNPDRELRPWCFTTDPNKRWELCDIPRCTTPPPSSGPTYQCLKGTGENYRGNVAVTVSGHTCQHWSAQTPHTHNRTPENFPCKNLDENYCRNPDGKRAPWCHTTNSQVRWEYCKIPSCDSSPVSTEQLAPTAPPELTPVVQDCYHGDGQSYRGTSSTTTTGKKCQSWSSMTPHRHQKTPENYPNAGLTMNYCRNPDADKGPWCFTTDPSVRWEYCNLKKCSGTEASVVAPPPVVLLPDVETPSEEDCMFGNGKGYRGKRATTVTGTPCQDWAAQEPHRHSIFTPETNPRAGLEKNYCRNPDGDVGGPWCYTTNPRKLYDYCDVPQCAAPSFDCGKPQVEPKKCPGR

B1: α2-antiplasmin: Circulating serpin that rapidly inhibits plasmin (protein)
chain: NQEQVSPLTLLKLGNQEPGGQTALKSPPGVCSRDPTPEQTHRLARAMMAFTADLFSLVAQTSTCPNLILSPLSVALALSHLALGAQNHTLQRLQQVLHAGSGPCLPHLLSRLCQDLGPGAFRLAARMYLQKGFPIKEDFLEQSEQLFGAKPVSLTGKQEDDLANINQWVKEATEGKIQEFLSGLPEDTVLLLLNAIHFQGFWRNKFDPSLTQRDSFHLDEQFTVPVEMMQARTYPLRWFLLEQPEIQVAHFPFKNNMSFVVLVPTHFEWNVSQVLANLSWDTLHPPLVWERPTKVRLPKLYLKHQMDLVATLSQLGLQELFQAPDLRGISEQSLVVSGVQHQSTLELSEVGVEAAAATSIAMSRMSLSSFSVNRPFLFFIFEDTTGLPLFVGSVRNPNPSAPRELKEQQDSPGNKDFLQSLKGFPRGDKLFGPDLKLVPPMEEDYPQFGSPK
plasmin
  rate constant of plasmin inhibition: 4×10^7 M^−1Sec^−1

B2: tPA: Tissue plasminogen activator, converts plasminogen into plasmin (protein, UniProt P00750 36-562, looked up)
Tissue-type plasminogen …: SYQVICRDEKTQMIYQQHQSWLRPVLRSNRVEYCWCNSGRAQCHSVPVKSCSEPRCFNGGTCQQALYFSDFVCQCPEGFAGKCCEIDTRATCYEDQGISYRGTWSTAESGAECTNWNSSALAQKPYSGRRPDAIRLGLGNHNYCRNPDRDSKPWCYVFKAGKYSSEFCSTPACSEGNSDCYFGNGSAYRGTHSLTESGASCLPWNSMILIGKVYTAQNPSAQALGLGKHNYCRNPDGDAKPWCHVLKNRRLTWEYCDVPSCSTCGLRQYSQPQFRIKGGLFADIASHPWQAAIFAKHRRSPGERFLCGGILISSCWILSAAHCFQERFPPHHLTVILGRTYRVVPGEEEQKFEVEKYIVHKEFDDDTYDNDIALLQLKSDSSRCAQESSVVRTVCLPPADLQLPDWTECELSGYGKHEALSPFYSERLKEAHVRLYPSSRCTSQHLLNRTVTDNMLCAGDTRSGGPQANLHDACQGDSGGPLVCLNDGRMTLVGIISWGLGCGQKDVPGVYTKVTNYLDWIRDNMRP
Preformed blood clots
  reduction in antiplasmin (α2 AP): fully depleted
